Results: US9724426B2, “Agents, uses and methods” (AFFINICON APS, priority 2009, dated 2017)
“And” between values parts separate entries of the source, which are not always exact repeats. Identical values can stand only once.

Assays:
Assay type in all cases: cell-based
[1] = target: T1, CD163 on CD14+ peripheral blood monocytes (Homo sapiens, UniProt Q86VB7); test: Quantitative flow cytometry of monocyte surface CD163 expression with different anti-CD163 clones
T1 construct: endogenous in cells; host or cells: human peripheral blood monocytes, monocyte-derived macrophages, blood dendritic cells
Description: Freshly drawn peripheral whole blood samples or PBMC (approx. 3×10^6 cells) were stained with isotype-matched control antibody or a relevant antibody for one hour at 4° C. in the dark. When staining whole blood, erythrocytes were lysed for 15 min with 4° C. cold solution of ammonium chloride. When indirect immunofluoresence staining was required, cells were initially incubated with unconjugated primary CD163 antibody for one hour at 4° C., washed three times with D-PBS, pH 7.4, followed by incubation with goat anti-mouse-conjugated Alexa-Fluor® 488 (1:200 dilution; Molecular Probes, Invitrogen, Carlsbad, Calif., USA) for one hour at 4° C. in the dark. The stained cells were washed twice three D-PBS, pH 7.4, re-suspended in 400 μl FACSflow (Becton Dickinson, San Jose, Calif., USA), and kept on ice until analysis. All samples were analyzed using a FACSCalibur flow cytometer and compensated for spectral overlap using FlowJo for Macintosh software version 8.3 (TreeStar, San Carlos, Calif.). For CD163 density quantitation, flow cytometric estimation of antibodies bound/cell (ABCs) was performed using Quantibrite PE beads (Becton Dickinson, San Jose, Calif., USA) as recommended by the manufacturer. After the cells were stained, as detailed, a set of 4 pre-calibrated fluorescently labeled beads was used for standardization before the samples were acquired. The Quantibrite PE beads were run at the same instrument settings as the assay, and the linear regression obtained using the Quantibrite PE beads was used to convert the FL2 linear fluorescence staining of cell population into the number of (CD163) PE molecules bound per cell (ABC).

[2] = target: T2, CD163 receptor on surface of human macrophages (Homo sapiens, UniProt Q86VB7); test: Binding and uptake of fluorescently labeled CD163 antibodies in monocyte-derived macrophages; settings: 0 min; macrophages stimulated with 200 nM dexamethasone
T2 construct: endogenous in cells; host or cells: human peripheral blood monocytes, monocyte-derived macrophages, blood dendritic cells
Description: Monocytes were isolated from PBMC by negative selection using magnetic beads from Dynal (Dynabeads® MyPure™ Monocyte Kit 2; Invitrogen A/S, Taastrup, Denmark) according to instructions provided by the manufacturer. Monocyte preparations were more than 95% (CD14^+) pure determined by flow cytometry. The isolated cells were washed twice with phosphate-buffered saline. Monocyte-derived macrophages (MDMs) were prepared by cell culture of monocytes (approximately 1×10^7 cells) for 4 days in 5% CO2 and 37° C. in RPMI 1640 media (RPMI 1640+25 mM HEPES+I-glutamine) (Invitrogen Corporation, Carlsbad, Calif., USA) with 20% FCS containing 100 ng/ml of M-CSF. MDMs were then detached from the flask by incubation with cell dissociation buffer (Invitrogen A/S, Taastrup, Denmark) for 30 minutes at 40 °C, then flushed, and scraped. […]
MDMs or CHO cells were washed with 4° C. cold D-PBS, pH 7.4, containing 1% BSA in Lab-Tek™ Chamber Slides (Thermo Fisher Scientific, Roskilde, Denmark). […] Fluorescence was visualized using a Zeiss Axiovert 200M microscope (Carl Zeiss GmbH, Jena, Germany) with an ×100 oil-immersion objective. […] Alternatively, immunostained cells were analyzed by confocal immunofluorescence microscopy using a Zeiss LSM-510 confocal microscope (Carl Zeiss GmbH, Jena, Germany). […]

[3] = system: LPS induction of TNF production in human in vitro matured macrophages; test: Dexamethasone treatment of cultivated pro-inflammatory macrophages, soluble TNF by cytometry bead array; settings: without dexamethasone; results not shown
Description: Monocytes were resuspended in RMPI 1640 medium (Sigma-Aldrich, Brondby, Denmark) containing 20% fetal calf serum (FCS) supplemented with 100 ng/ml M-CSF (GenScript Corporation, New Jersey, USA) and pencillin/streptomycin (pen/strep) for 7 days. The first 3 days in Tissue Culture Flasks at 37° C. and 5% CO2. The monocytes were then detached from the flask by flushing and scraping. The monocytes were divided into smaller portions and further grown for four days. […] cells per well were grown in 96 well tissue culture plates for TNF CBA use.
Subsequently, the macrophages were activated in RMPI 1640 containing 5% FCS, 1 ug/ml lipopolysaccaride (LPS) (Sigma-Aldrich, Brøondby, Denmark) and 20 ng/ml INF-gamma (Genscript Corporation, New Jersey, USA) for 18 hours making them pro-inflammatory.
The pro-inflammatory macrophages were stimulated with RMPI160, 5% FCS, 1 ug/ml LPS and 20 ng/ml INF-gamma containing either dexamethasone, Ab-dexamethasone or no drug.
To detect the change in soluble TNF-alpha concentration we used the Cytometry Bead Array Kit (BD Biosciences, New Jersey, USA). The media from the in vitro stimulated macrophages (described earlier) grown in 96 well tissue culture plates were analyzed according to the manufacturer's protocol.

T1 sequence (Q86VB7 42-1156): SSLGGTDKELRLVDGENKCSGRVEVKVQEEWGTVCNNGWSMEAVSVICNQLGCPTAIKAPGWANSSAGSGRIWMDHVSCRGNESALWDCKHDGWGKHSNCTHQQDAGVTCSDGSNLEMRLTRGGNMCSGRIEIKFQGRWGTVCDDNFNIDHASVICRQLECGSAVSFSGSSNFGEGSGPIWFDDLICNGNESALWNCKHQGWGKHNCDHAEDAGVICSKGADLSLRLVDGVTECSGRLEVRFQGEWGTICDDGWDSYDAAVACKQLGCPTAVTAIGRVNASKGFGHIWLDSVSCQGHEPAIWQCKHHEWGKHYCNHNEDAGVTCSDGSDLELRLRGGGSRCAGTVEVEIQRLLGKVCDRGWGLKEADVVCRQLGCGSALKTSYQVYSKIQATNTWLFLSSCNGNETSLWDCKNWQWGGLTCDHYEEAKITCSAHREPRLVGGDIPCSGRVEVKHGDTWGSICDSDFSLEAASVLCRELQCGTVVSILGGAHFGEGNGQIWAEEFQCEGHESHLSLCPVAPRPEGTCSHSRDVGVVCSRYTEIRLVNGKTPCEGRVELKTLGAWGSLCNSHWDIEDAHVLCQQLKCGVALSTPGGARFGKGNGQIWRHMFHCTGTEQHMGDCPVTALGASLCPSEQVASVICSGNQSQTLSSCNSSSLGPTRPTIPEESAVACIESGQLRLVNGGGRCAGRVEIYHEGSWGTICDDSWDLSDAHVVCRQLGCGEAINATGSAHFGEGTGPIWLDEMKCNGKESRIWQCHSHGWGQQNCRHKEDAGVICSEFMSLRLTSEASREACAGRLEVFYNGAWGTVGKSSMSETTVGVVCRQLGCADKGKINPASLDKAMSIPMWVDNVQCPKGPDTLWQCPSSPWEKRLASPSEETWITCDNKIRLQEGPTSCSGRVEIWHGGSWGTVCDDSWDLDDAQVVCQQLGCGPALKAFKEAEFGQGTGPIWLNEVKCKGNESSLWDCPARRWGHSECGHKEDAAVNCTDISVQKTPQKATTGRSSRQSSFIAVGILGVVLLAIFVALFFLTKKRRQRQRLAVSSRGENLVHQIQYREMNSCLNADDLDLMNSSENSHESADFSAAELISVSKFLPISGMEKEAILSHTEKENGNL
T2 sequence (Q86VB7 42-1156): as above

B1: Mac2-158: murine anti-human CD163 mAb binding SRCR domain 1; VH SEQ ID NO:20, VL SEQ ID NO:21; IQ Products (antibody, V domains shown)
VH: DVQLQESGPGLVKPSQSLSLTCTVTGYSITSDYAWNWIRQFPGNKLEWMGYITYSGITNYNPSLKSQISITRDTSKNQFFLQLNSVTTEDTATYYCVSGTYYFDYWGQGTTLTVSS
VL: SVVMTQTPKSLLISIGDRVTITCKASQSVSSDVAWFQQKPGQSPKPLIYYASNRYTGVPDRFTGSGYGTDFTFTISSVQAEDLAVYFCGQDYTSPRTFGGGTKLEIKRA
modifications: Mac2-158 VH sequence; Mac2-158 VL sequence
notes: IQ Products
In the case of B1, the “density of CD163 receptors per monocyte” value ([1]; citrate stabilized whole blood) is reported as 17,726, the “fraction of CD14+ monocytes stained positive for CD163” value (shortened to “fraction”) ([1]; citrate stabilized whole blood) is reported as 83.97% and the “fraction” value ([1]; freshly drawn EDTA stabilized whole blood) is reported as 84.06% and 87.23%. For the same molecule, the “density of CD163 receptors per monocyte” value ([1]; heparin stabilized whole blood) was 18,929, the “fraction” value ([1]; heparin stabilized whole blood) was 84.43% and the “cell surface staining (immunofluorescence)” value [2] was “pronounced cell surface staining”. For the same molecule, the effect on macrophages [3] was “no effect different from buffer”.
